Results as given in PMC4446440, “Structural and functional analysis reveals that human OASL binds dsRNA to enhance RIG-I signaling” (Nucleic Acids Research, 2015).

B1: full-length OASL (human 2'-5' oligoadenylate synthetase-like protein), recombinant from insect cells (natural protein, UniProt Q15646 1-514, looked up)
chain: MALMQELYSTPASRLDSFVAQWLQPHREWKEEVLDAVRTVEEFLRQEHFQGKRGLDQDVRVLKVVKVGSFGNGTVLRSTREVELVAFLSCFHSFQEAAKHHKDVLRLIWKTMWQSQDLLDLGLEDLRMEQRVPDALVFTIQTRGTAEPITVTIVPAYRALGPSLPNSQPPPEVYVSLIKACGGPGNFCPSFSELQRNFVKHRPTKLKSLLRLVKHWYQQYVKARSPRANLPPLYALELLTIYAWEMGTEEDENFMLDEGFTTVMDLLLEYEVICIYWTKYYTLHNAIIEDCVRKQLKKERPIILDPADPTLNVAEGYRWDIVAQRASQCLKQDCCYDNRENPISSWNVKRARDIHLTVEQRGYPDFNLIVNPYEPIRKVKEKIRRTRGYSGLQRLSFQVPGSERQLLSSRCSLAKYGIFSHTHIYLLETIPSEIQVFVKNPDGGSYAYAINPNSFILGLKQQIEDQQGLPKKQQQLEFQGQVLQDWLGLGIYGIQDSDTLILSKKKGEALFPAS
notes: human OASL, full length (printed as 61 kDa); OAS-like domain (residues 1-350) followed by two ubiquitin-like domains; also called OAS-like protein
B2: 18 bp dsRNA (dsRNA)
RNA 1: GGCUUUUGACCUUUAUGC
RNA 2: GCAUAAAGGUCAAAAGCC

Tests used:
[1] = target: the molecule itself; test: SEC; analytical, Superdex 200 PC3.2/30; OASL run in 50 mM Tris-HCl pH 9, 500 mM NaCl, 10% glycerol, 1.5 mM MgCl2, 1 M urea, 1 mM BME; calibrated with Blue Dextran and albumin
[2] = target: T1, OLD (OAS-like domain of OASL) wild type (Homo sapiens, UniProt Q15646 1-350); test: EMSA; OLD 2.4 uM, dsRNA 0-8.6 uM, protein stained; 1.5 mM Mg2+; 100 mM DL-malic acid pH 5.9, 200 (unit not given) Na2SO4, 300 mM NaCl, 1.5 mM MgCl2, 2 mM BME, 5% glycerol; 37 C 15 min; native PAGE in 0.5x TBE; settings: protein: recombinant; tags: C-terminal 6xHis; blunt
T1 sequence: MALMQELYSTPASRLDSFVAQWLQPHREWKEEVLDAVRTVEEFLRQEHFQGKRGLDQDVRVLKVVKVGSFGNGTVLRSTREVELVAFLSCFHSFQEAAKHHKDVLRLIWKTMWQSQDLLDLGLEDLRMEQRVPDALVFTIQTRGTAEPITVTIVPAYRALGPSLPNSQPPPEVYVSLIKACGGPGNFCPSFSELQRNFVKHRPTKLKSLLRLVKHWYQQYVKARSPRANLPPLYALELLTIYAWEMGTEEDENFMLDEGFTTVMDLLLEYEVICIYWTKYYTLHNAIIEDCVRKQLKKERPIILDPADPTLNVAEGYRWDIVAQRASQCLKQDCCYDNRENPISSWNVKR

Binder	binding result [1]	binding result [2]
B1	binds	
B2		binds
